Assay results as given in US20230192897A1 (NUMAB THERAPEUTICS, published 2023).

What was measured:
human PDL1 on cells = human PDL1 on cells (human, UniProt Q9NZQ7 19-290); assay: cell-based or functional assay
biotinylated human PDL1 [1] = target: T1, biotinylated human PDL1 (human, UniProt Q9NZQ7 19-238, limits assumed, biotinylated); assay: competition ELISA PD-1/PDL1
T1 construct: also called biotinylated PDL1

biotinylated human PDL1 [2] = target: T1, biotinylated human PDL1; assay: competition ELISA B7.1/PDL1
How it was run: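 Test mixtures containing biotinylated human PDL1 were pre-incubated 1 h at room temperature, then incubated 1.5 h on the plate under agitation. Bound PDL1 detected with 10 ng/ml streptavidin-polyHRP40 and TMB, stopped at 6 min with HCl, read at 450 nm minus 690 nm. IC₅₀ from 4PL fit.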

Fc tagged human PDL1 = target: T2, Fc tagged human PDL1 (human, UniProt Q9NZQ7 19-239); assay: SPR
T2 construct: Bought (Sino Biological, cat. 10084-H02H); captured on the SPR chip; also called PDL1-Fc chimeric protein
How it was run: (§1)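 Kinetics were fitted with a one-to-one Langmuir model to give apparent ka, kd and KD. Binders at 0.12-90 nM (three-fold series) flowed 3 min, with 10 min dissociation and 3 M MgCl₂ regeneration, on a Biacore T200.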

[3] = target: T3, cynomolgus PDL1-Fc chimeric protein (cynomolgus monkey, UniProt G7PSE7 19-239); assay: SPR
T3 construct: PDL1-Fc chimeric protein from different species captured on the chip
How it was run: as §1

[4] = target: T4, CD137 on Jurkat NFkB reporter cells (human, UniProt Q07011 24-255); assay: cell-based or functional assay
[5] = target: T4, CD137 on Jurkat NFkB reporter cells; assay: cell-based or functional assay; remark: listed apart in the source
human serum albumin = target: T5, human serum albumin (human, UniProt P02768 25-609); assay: SPR, SA coupled to chip, pH 5.5
T5 construct: Coupled directly to the CM5 chip; also called HSA; human SA
Experimental: Affinity of molecules to serum albumin (SA) of the different species was determined by SPR measurements using a Biacore T200 device (GE Healthcare). SA was directly coupled to a CM5 sensor chip (GE Healthcare) using amine coupling chemistry. […] The assay was run in a 1× PBS-Tween buffer at pH 5.5.

Fc tagged human CD137 = target: T6, Fc tagged human CD137 (human, UniProt Q07011 24-186); assay: SPR
T6 construct: also called CD137-Fc chimeric protein
How it was run: as §1

[6] = target: cynomolgus CD137-Fc chimeric protein (cynomolgus monkey, UniProt A9YYE7 24-186); assay: SPR
How it was run: as §1

Binder	IC50 (ng/ml), NF-AT potency assay (human PDL1 on cells) [ng/mL]	rel. IC50 (avelumab/test) (human PDL1 on cells) [fold]	IC50 (biotinylated human PDL1 [1]) [ng/mL]	rel. IC50 (IC50 avelumab/IC50 test) (biotinylated human PDL1 [1]) [fold]	IC50 (biotinylated human PDL1 [2]) [ng/mL]	rel. IC50 (IC50 avelumab/IC50 test) (biotinylated human PDL1 [2]) [fold]	Kd (Fc tagged human PDL1) [nM]	koff (Fc tagged human PDL1) [s⁻¹]	kon (Fc tagged human PDL1) [M⁻¹ s⁻¹]	koff [3] [s⁻¹]	kon [3] [M⁻¹ s⁻¹]	Area under the curve (calculated using PRO885 normalized data), first line (6 h by the order of the upper part) [4]	Area under the curve (calculated using PRO885 normalized data), second line (24 h by the order of the upper part) [4]	EC50 [ng/ml], NF-kB reporter, HCC827 + IFNg, +HSA, 6 h [4] [ng/mL]	IC10/EC90 ratio, first line (6 h by the order of the upper part) [4]	IC10/EC90 ratio, second line (24 h by the order of the upper part) [4]	Maximum NF-kB activation (rel. to PRO1186) [%], first line (6 h by the order of the upper part) [4] [%]	Maximum NF-kB activation (rel. to PRO1186) [%], second line (24 h by the order of the upper part) [4] [%]	rel. Area under the curve (AUCsample/AUCPRO1186), first line (6 h by the order of the upper part) [4] [fold]	rel. Area under the curve (AUCsample/AUCPRO1186), second line (24 h by the order of the upper part) [4] [fold]	also measured
PRO997 (scFv, also called 37-20-B03 sc01 scFv; 37-20-B03 CDR) scFv: DIQMTQSPSSLSASVGDRVTITCQASQSIGTYLAWYQQKPGKAPKLLIYRAFILASGVPSRFSGSGSGTDFTLTISSLQPEDFATYYCQSNFYSDSTTIGPNAFGTGTKVTVLGGGGGSGGGGSGGGGSGGGGSQVQLQESGPGLVKPSETLSLTCKVSGFSFNSDYWIYWIRQPPGKGLEWIGSIYGGSSGNTQYASWAQGRVTISVDSSKNQFSLKLSSVTAADTAVYYCARGYVDYGGATDLWGQGTLVTVSS	11.1	3.07	0.5	4.16	6.36	2.34	≤ 0.0017	< 2e-05	5.9e+06	< 1e-05	6e+06										fold higher affinity against the STR graft of clone 33-03-G02 (Fc tagged human PDL1): ~2 fold
PRO830 (scFv, anti-PDL1 scFv; also called 33-03-G02 sc01 scFv; 33-03-G02 CDR) scFv: DIQMTQSPSSLSASVGDRVTITCQASQSINDYLAWYQQKPGKAPKLLIYKASTLASGVPSRFSGSGSGTDFTLTISSLQPEDFATYYCQQGYIITDIDNVFGTGTKVTVLGGGGGSGGGGSGGGGSGGGGSQVQLQESGPGLVKPSETLSLTCKVSGFSFSSGYDMCWIRQPPGKGLEWIGCVVAGSVDITYYASWAKGRVTISVDSSKNQFSLKLSSVTAADTAVYYCARKDAYSDAFNLWGQGTLVTVSS	42.9	0.73	3.4	0.61	12.9	1.16		0.00016	2.1e+06	0.0002	2.2e+06										
PRO1013 (scFv, anti-PDL1 scFv; also called 37-20-B03 sc02 scFv; 37-20-B03 CDR, VH1) scFv: DIQMTQSPSSLSASVGDRVTITCQASQSIGTYLAWYQQKPGKAPKLLIYRAFILASGVPSRFSGSGSGTDFTLTISSLQPEDFATYYCQSNFYSDSTTIGPNAFGTGTKVTVLGGGGGSGGGGSGGGGSGGGGSQVQLVQSGAEVKKPGASVKVSCKASGFSFNSDYWIYWVRQAPGQGLEWMGSIYGGSSGNTQYASWAQGRVTMTRDTSISTAYMELSSLRSEDTAVYYCARGYVDYGGATDLWGQGTLVTVSS	21.3	1.6	0.57	3.67	4.05	3.68	0.045	0.00027	6e+06	0.00032	5.9e+06										

Continued, in another order:

IC50 (ng/ml), NF-AT potency assay (human PDL1 on cells) [ng/mL]	rel. IC50 (avelumab/test) (human PDL1 on cells) [fold]	IC50 (biotinylated human PDL1 [1]) [ng/mL]	rel. IC50 (IC50 avelumab/IC50 test) (biotinylated human PDL1 [1]) [fold]	IC50 (biotinylated human PDL1 [2]) [ng/mL]	rel. IC50 (IC50 avelumab/IC50 test) (biotinylated human PDL1 [2]) [fold]	Kd (Fc tagged human PDL1) [nM]	koff (Fc tagged human PDL1) [s⁻¹]	kon (Fc tagged human PDL1) [M⁻¹ s⁻¹]	koff [3] [s⁻¹]	kon [3] [M⁻¹ s⁻¹]	Area under the curve (calculated using PRO885 normalized data), first line (6 h by the order of the upper part) [4]	Area under the curve (calculated using PRO885 normalized data), second line (24 h by the order of the upper part) [4]	EC50 [ng/ml], NF-kB reporter, HCC827 + IFNg, +HSA, 6 h [4] [ng/mL]	IC10/EC90 ratio, first line (6 h by the order of the upper part) [4]	IC10/EC90 ratio, second line (24 h by the order of the upper part) [4]	Maximum NF-kB activation (rel. to PRO1186) [%], first line (6 h by the order of the upper part) [4] [%]	Maximum NF-kB activation (rel. to PRO1186) [%], second line (24 h by the order of the upper part) [4] [%]	rel. Area under the curve (AUCsample/AUCPRO1186), first line (6 h by the order of the upper part) [4] [fold]	rel. Area under the curve (AUCsample/AUCPRO1186), second line (24 h by the order of the upper part) [4] [fold]	Binder	also measured
		2.65	0.86	10.7	1.38	0.0092		4.2e+06			191	207	7.38	81.9	523	108	119	1.11	1.37	PRO1479 (other, trispecific scDb-scFv; also called 38-02-A04 sc13 scDb-i/37-20-B03 sc09.1 scDb-o/19-01-H04 sc03 scFv) DIQMTQSPASLSASVGDRVTITCQASQSIGTYLAWYQQKPGKPPKLLIYRAFILASGVPSRFSGSGSGTDFTLTISSLQPEDFATYYCQSNFYSDSTTIGPNAFGTGTKVTVLGGGGGSEVQLVESGGGLVQPGGSLRLSCAASGFSFSNSYWICWVRQAPGKCLEWIGCTFVGSSDSTYYANWAKGRFTISRDNSKNTVYLQMNSLRAEDTAVYYCARHPSDAVYGYANNLWGQGTLVTVSSGGGGSGGGGSGGGGSGGGGSIQMTQSPSSLSASVGDRVTITCQASQSINNVLAWYQQKPGKAPKLLIYRASTLASGVPSRFSGSGSGTDFTLTISSLQPEDFATYYCQSSYGNYGDFGCGTKVTVLGGGGGSEVQLVESGGGLVQPGGSLRLSCAASGFSFNSDYWIYWVRQAPGKGLEWIASIYGGSSGNTQYASWAQGRFTISRDNSKNTVYLQMNSLRAEDTAVYFCARGYVDYGGATDLWGQGTLVTVSSGGGGSGGGGSIQMTQSPSSLSASVGDRVTITCQSSESVYSNNQLSWYQQKPGQPPKLLIYDASDLASGVPSRFSGSGSGTDFTLTISSLQPEDFATYYCAGGFSSSSDTAFGGGTKLTVLGGGGGSGGGGSGGGGSGGGGSEVQLVESGGGLVQPGGSLRLSCAASGFSLSSNAMGWVRQAPGKGLEYIGIISVGGFTYYASWAKGRFTISRDNSKNTVYLQMNSLRAEDTATYFCARDRHGGDSSGAFYLWGQGTLVTVSS	rel. EC50 (EC50, PRO1186/EC50, sample), NF-kB reporter, 6 h [4]: 1.74 fold; rel. EC50 (EC50, PRO1186/EC50, sample), NF-kB reporter, 24 h [4]: 0.87 fold; rel. IC10/EC90 (ratio of sample/ratio of PRO1186), first line (6 h by the order of the upper part) [4]: 0.25 fold; rel. IC10/EC90 (ratio of sample/ratio of PRO1186), second line (24 h by the order of the upper part) [4]: 1.66 fold; IC50 (ng/ml), NF-AT potency assay, +HSA (human PDL1 on cells): 50.4 ng/mL; rel. IC50 (avelumab/test), +HSA (human PDL1 on cells): 1.04 fold; IC50 (ng/ml) (EC50 in Table 16C), NFkB reporter, HCC827 + IFNg, 24 h, +HSA [5]: 7.61 ng/mL; rel. IC50 (PRO1186/test), 24 h [5]: 0.87 fold; Kd (human serum albumin): 0.976 nM; Kd (Fc tagged human CD137): 1.7 nM; koff (Fc tagged human CD137): 0.00054 s⁻¹; kon (Fc tagged human CD137): 330000 M⁻¹ s⁻¹
		2.27	1	11.2	1.32			3.5e+06	3.4e-05	4e+06	232	261	6.44	43	360	114	121	1.2	1.29	PRO1480 (other, trispecific scDb-scFv; also called 38-27-A11 sc02 scDb-i/37-20-B03 sc09.1 scDb-o/19-01-H04 sc03 scFv) DIQMTQSPASLSASVGDRVTITCQASQSIGTYLAWYQQKPGKPPKLLIYRAFILASGVPSRFSGSGSGTDFTLTISSLQPEDFATYYCQSNFYSDSTTIGPNAFGTGTKVTVLGGGGGSEVQLVESGGGLVQPGGSLRLSCAASGFSFSANYYPCWVRQAPGKGLEWIGCIYGGSSDITYDANWTKGRFTISRDNSKNTVYLQMNSLRAEDTAVYYCARSAWYSGWGGDLWGQGTLVTVSSGGGGSGGGGSGGGGSGGGGSIQMTQSPSSLSASVGDRVTITCQASQSISNRLAWYQQKPGKAPKLLIYSASTLASGVPSRFSGSGSGTDFTLTISSLQPEDFATYYCQSTYYGNDGNAFGTGTKVTVLGGGGGSEVQLVESGGGLVQPGGSLRLSCAASGFSFNSDYWIYWVRQAPGKGLEWIASIYGGSSGNTQYASWAQGRFTISRDNSKNTVYLQMNSLRAEDTAVYFCARGYVDYGGATDLWGQGTLVTVSSGGGGSGGGGSIQMTQSPSSLSASVGDRVTITCQSSESVYSNNQLSWYQQKPGQPPKLLIYDASDLASGVPSRFSGSGSGTDFTLTISSLQPEDFATYYCAGGFSSSSDTAFGGGTKLTVLGGGGGSGGGGSGGGGSGGGGSEVQLVESGGGLVQPGGSLRLSCAASGFSLSSNAMGWVRQAPGKGLEYIGIISVGGFTYYASWAKGRFTISRDNSKNTVYLQMNSLRAEDTATYFCARDRHGGDSSGAFYLWGQGTLVTVSS	rel. EC50 (EC50, PRO1186/EC50, sample), NF-kB reporter, 6 h [4]: 1.93 fold; rel. EC50 (EC50, PRO1186/EC50, sample), NF-kB reporter, 24 h [4]: 1 fold; rel. IC10/EC90 (ratio of sample/ratio of PRO1186), first line (6 h by the order of the upper part) [4]: 0.54 fold; rel. IC10/EC90 (ratio of sample/ratio of PRO1186), second line (24 h by the order of the upper part) [4]: 1.86 fold; IC50 (ng/ml), NF-AT potency assay, +HSA (human PDL1 on cells): 84.8 ng/mL; rel. IC50 (avelumab/test), +HSA (human PDL1 on cells): 0.61 fold; IC50 (ng/ml) (EC50 in Table 16C), NFkB reporter, HCC827 + IFNg, 24 h, +HSA [5]: 4.67 ng/mL; rel. IC50 (PRO1186/test), 24 h [5]: 1 fold; kon (human serum albumin): 327000 M⁻¹ s⁻¹; Kd (Fc tagged human CD137): 0.37 nM; koff (Fc tagged human CD137): 0.00022 s⁻¹; kon (Fc tagged human CD137): 580000 M⁻¹ s⁻¹; Kd [6]: 0.47 nM; koff [6]: 0.0003 s⁻¹; kon [6]: 640000 M⁻¹ s⁻¹; Kd [3]: 0.0085 nM
